Residue numbers refer to the chain shown, from its start. In names and notes the source's numbering stands.
Tests used:
[1] = molecular target: rhNav1.7α + β1-β2-β3 (rhesus Nav1.7α co-expressed with Navβ1, Navβ2 and Navβ3) (rhesus monkey); assay: FACS, periplasmic extract, CHO Flp-In cells; SD MFI 18
[2] = molecular target: muNav1.7α (murine Nav1.7α) (murine) (UniProt Q62205); assay: FACS, periplasmic extract, HEK Jmp-In cells; SD MFI 25
[3] = molecular target: rhNav1.7α + β1-β2-β3 (rhesus Nav1.7α co-expressed with Navβ1, Navβ2 and Navβ3) (rhesus monkey); assay: FACS, periplasmic extract, CHO Flp-In cells; SD MFI 6
[4] = molecular target: muNav1.7α (murine Nav1.7α) (murine) (UniProt Q62205); assay: FACS, periplasmic extract, HEK Jmp-In cells; SD MFI 0
[5] = molecular target: rhNav1.7α + β1-β2-β3 (rhesus Nav1.7α co-expressed with Navβ1, Navβ2 and Navβ3) (rhesus monkey); assay: FACS, periplasmic extract, CHO Flp-In cells; SD MFI 30
[6] = molecular target: muNav1.7α (murine Nav1.7α) (murine) (UniProt Q62205); assay: FACS, periplasmic extract, HEK Jmp-In cells; SD MFI 1
[7] = molecular target: rhNav1.7α + β1-β2-β3 (rhesus Nav1.7α co-expressed with Navβ1, Navβ2 and Navβ3) (rhesus monkey); assay: FACS, periplasmic extract, CHO Flp-In cells; SD MFI 8
[8] = molecular target: muNav1.7α (murine Nav1.7α) (murine) (UniProt Q62205); assay: FACS, periplasmic extract, HEK Jmp-In cells; SD MFI 21
[9] = molecular target: muNav1.7α (murine Nav1.7α) (murine) (UniProt Q62205); assay: FACS, periplasmic extract, HEK Jmp-In cells; SD MFI 7
[10] = molecular target: rhNav1.7α + β1-β2-β3 (rhesus Nav1.7α co-expressed with Navβ1, Navβ2 and Navβ3) (rhesus monkey); assay: FACS, periplasmic extract, CHO Flp-In cells; SD MFI 1
[11] = molecular target: muNav1.7α (murine Nav1.7α) (murine) (UniProt Q62205); assay: FACS, periplasmic extract, HEK Jmp-In cells; SD MFI 8
[12] = molecular target: muNav1.7α (murine Nav1.7α) (murine) (UniProt Q62205); assay: FACS, periplasmic extract, HEK Jmp-In cells; SD MFI 19
[13] = molecular target: rhNav1.7α + β1-β2-β3 (rhesus Nav1.7α co-expressed with Navβ1, Navβ2 and Navβ3) (rhesus monkey); assay: FACS, periplasmic extract, CHO Flp-In cells; SD MFI 10
[14] = molecular target: rhNav1.7α + β1-β2-β3 (rhesus Nav1.7α co-expressed with Navβ1, Navβ2 and Navβ3) (rhesus monkey); assay: FACS, periplasmic extract, CHO Flp-In cells; SD MFI 0
[15] = molecular target: muNav1.7α (murine Nav1.7α) (murine) (UniProt Q62205); assay: FACS, periplasmic extract, HEK Jmp-In cells; SD MFI 15
[16] = molecular target: huNav1.7α + β1-β2-β3 (human Nav1.7α co-expressed with Navβ1, Navβ2 and Navβ3) (human) (UniProt Q15858); assay: FACS, periplasmic extract, CHO Flp-In cells; SD MFI 16
[17] = molecular target: rhNav1.7α + β1-β2-β3 (rhesus Nav1.7α co-expressed with Navβ1, Navβ2 and Navβ3) (rhesus monkey); assay: FACS, periplasmic extract, CHO Flp-In cells; SD MFI 20
[18] = molecular target: muNav1.7α (murine Nav1.7α) (murine) (UniProt Q62205); assay: FACS, periplasmic extract, HEK Jmp-In cells; SD MFI 12
[19] = molecular target: muNav1.7α (murine Nav1.7α) (murine) (UniProt Q62205); assay: FACS, periplasmic extract, HEK Jmp-In cells; SD MFI 123
[20] = molecular target: muNav1.7α (murine Nav1.7α) (murine) (UniProt Q62205); assay: FACS, periplasmic extract, HEK Jmp-In cells; SD MFI 5
[21] = molecular target: rhNav1.7α + β1-β2-β3 (rhesus Nav1.7α co-expressed with Navβ1, Navβ2 and Navβ3) (rhesus monkey); assay: FACS, periplasmic extract, CHO Flp-In cells; SD MFI 22
[22] = molecular target: muNav1.7α (murine Nav1.7α) (murine) (UniProt Q62205); assay: FACS, periplasmic extract, HEK Jmp-In cells; SD MFI 16
[23] = molecular target: rhNav1.7α + β1-β2-β3 (rhesus Nav1.7α co-expressed with Navβ1, Navβ2 and Navβ3) (rhesus monkey); assay: FACS, periplasmic extract, CHO Flp-In cells; SD MFI 2
[24] = molecular target: muNav1.7α (murine Nav1.7α) (murine) (UniProt Q62205); assay: FACS, periplasmic extract, HEK Jmp-In cells; SD MFI 3361
[25] = molecular target: muNav1.7α (murine Nav1.7α) (murine) (UniProt Q62205); assay: FACS, periplasmic extract, HEK Jmp-In cells; SD MFI 61
[26] = molecular target: muNav1.7α (murine Nav1.7α) (murine) (UniProt Q62205); assay: FACS, periplasmic extract, HEK Jmp-In cells; SD MFI 23
[27] = molecular target: rhNav1.7α + β1-β2-β3 (rhesus Nav1.7α co-expressed with Navβ1, Navβ2 and Navβ3) (rhesus monkey); assay: FACS, periplasmic extract, CHO Flp-In cells; SD MFI 33
[28] = molecular target: rhNav1.7α + β1-β2-β3 (rhesus Nav1.7α co-expressed with Navβ1, Navβ2 and Navβ3) (rhesus monkey); assay: FACS, periplasmic extract, CHO Flp-In cells; SD MFI 4
[29] = molecular target: rhNav1.7α + β1-β2-β3 (rhesus Nav1.7α co-expressed with Navβ1, Navβ2 and Navβ3) (rhesus monkey); assay: FACS, periplasmic extract, CHO Flp-In cells; SD MFI 13
[30] = molecular target: huNav1.5-β1-β2-β3 (human) (UniProt Q14524); assay: FACS, CHO Flp-In, competitor 1 µM IRR00092
[31] = molecular target: huNav1.5-β1-β2-β3 (human) (UniProt Q14524); assay: binding FACS, CHO Flp-In, periplasmic extract
[32] = molecular target: huNav1.5-β1-β2-β3 (human) (UniProt Q14524); assay: binding FACS, HEK Flp-In
[33] = molecular target: huNav1.5-β1-β2-β3 (human) (UniProt Q14524); assay: FACS, CHO Flp-In, competitor 1 µM F010300703

B1: F0103464B09 N99A library variant (VHH, name in Kabat numbering)
VHH: EVQLVESGGGLVQPGGSLRLSCATTSRAFIRDVFTGWYRRVPGKERELVARIYNGGNTNYADFAKGRFSISRDNAKKMVTLRMSNLKPEDTGVYYCLFSGTIATGREYRSGDYWGQGTLVTVSS
Mean MFI [1]: 611 MFI

B2: F0103464B09 N99C library variant (VHH, name in Kabat numbering)
VHH: B1 VHH with A103C
Mean MFI [2]: 930 MFI
Mean MFI [3]: 528 MFI

B3: F0103464B09 N99D library variant (VHH, name in Kabat numbering)
VHH: B1 VHH with A103D
Mean MFI [4]: 929 MFI
Mean MFI [5]: 520 MFI

B4: F0103464B09 N99E library variant (VHH, name in Kabat numbering)
VHH: B1 VHH with A103E
Mean MFI [6]: 938 MFI
Mean MFI [3]: 528 MFI

B5: F0103464B09 N99F library variant (VHH, name in Kabat numbering)
VHH: B1 VHH with A103F
Mean MFI [6]: 938 MFI
Mean MFI [3]: 516 MFI

B6: F0103464B09 N99G library variant (VHH, name in Kabat numbering)
VHH: B1 VHH with A103G
Mean MFI [7]: 530 MFI
Mean MFI [8]: 956 MFI

B7: F0103464B09 N99I library variant (VHH, name in Kabat numbering)
VHH: B1 VHH with A103I
Mean MFI [9]: 946 MFI
Mean MFI [3]: 540 MFI

B8: F0103464B09 N99K library variant (VHH, name in Kabat numbering)
VHH: B1 VHH with A103K
Mean MFI [10]: 537 MFI
Mean MFI [11]: 923 MFI

B9: F0103464B09 N99L library variant (VHH, name in Kabat numbering)
VHH: B1 VHH with A103L
Mean MFI [12]: 919 MFI
Mean MFI [13]: 536 MFI

B10: F0103464B09 N99M library variant (VHH, name in Kabat numbering)
VHH: B1 VHH with A103M
Mean MFI [14]: 523 MFI
Mean MFI [15]: 936 MFI

B11: F0103464B09 N99P library variant (VHH, name in Kabat numbering)
VHH: B1 VHH with A103P
Mean MFI [16]: 612 MFI
Mean MFI [17]: 554 MFI
Mean MFI [18]: 912 MFI

B12: F0103464B09 N99Q library variant (VHH, name in Kabat numbering)
VHH: B1 VHH with A103Q
Mean MFI [19]: 1490 MFI
Mean MFI [13]: 546 MFI

B13: F0103464B09 N99R library variant (VHH, name in Kabat numbering)
VHH: B1 VHH with A103R
Mean MFI [14]: 572 MFI
Mean MFI [20]: 975 MFI

B14: F0103464B09 N99T library variant (VHH, name in Kabat numbering)
VHH: B1 VHH with A103T
Mean MFI [21]: 839 MFI

B15: F0103464B09 N99V library variant (VHH, name in Kabat numbering)
VHH: B1 VHH with A103V
Mean MFI [22]: 952 MFI
Mean MFI [3]: 552 MFI

B16: F0103464B09 N99W library variant (VHH, name in Kabat numbering)
VHH: B1 VHH with A103W
Mean MFI [23]: 530 MFI
Mean MFI [24]: 3320 MFI

B17: F0103464B09 N99Y library variant (VHH, name in Kabat numbering)
VHH: B1 VHH with A103Y
Mean MFI [25]: 936 MFI
Mean MFI [17]: 490 MFI

B18: F0103464B09 T100D library variant (VHH, name in Kabat numbering)
VHH: B1 VHH with A103N, T104D
Mean MFI [10]: 526 MFI

B19: F0103464B09 T100E library variant (VHH, name in Kabat numbering)
VHH: B1 VHH with A103N, T104E
Mean MFI [26]: 973 MFI
Mean MFI [27]: 518 MFI

B20: F0103464B09 T100F library variant (VHH, name in Kabat numbering)
VHH: B1 VHH with A103N, T104F
Mean MFI [12]: 997 MFI
Mean MFI [5]: 533 MFI

B21: F0103464B09 T100H library variant (VHH, name in Kabat numbering)
VHH: B1 VHH with A103N, T104H
Mean MFI [28]: 689 MFI

B22: F0103464B09 T100V library variant (VHH, name in Kabat numbering)
VHH: B1 VHH with A103N, T104V
Mean MFI [22]: 1680 MFI
Mean MFI [29]: 564 MFI

B23: F0103PMP478E09 (bispecific antibody)
chain: EVQLVESGGGLVQPGGSLRLSCAASGSIFNINSMAWYRRAPGKQRELVASSTNGGSTNYADSVKGRFTISRDNAKRVYLQMNSLTPEDTAVYYCRALLQPSIYDISRTYWGQGTLVTVSSGGGGSGGGGSGGGGSGGGGSGGGGSGGGGSGGGGSGGGGSGGGGSGGGGSEVQLVESGGGLVQAGGSLRLSCAASGRAFSTLAMGWFRQAPGKEREFVAAISRNGNNSATGDSLKGRFTISRDSTKSTVFLQMNTLKPEDTAVYYCAAISTPSASHPYVRKESYRYWGQGTQVTVSSAAADYKDHDGDYKDHDIDYKDDDDKGAAHHHHHHKAAGGGGG
MFI [30]: 2060 MFI
MFI [31]: 1080 MFI
MFI [32]: 877 MFI
MFI [33]: 833 MFI

B24: F0103PMP492E09 (bispecific antibody)
chain: EVQLVESGGGLVQPGGSLRLSCAASGSIFNINSMAWYRRAPGKQRELVASSTNGGSTNYADSVKGRFTISRDNAKRVYLQMNSLTPEDTAVYYCRALLQPSIYDISRTYWGQGTLVTVSSGGGGSGGGGSGGGGSGGGGSGGGGSGGGGSGGGGSGGGGSGGGGSGGGGSEVQLVESGGGLVQAGGSLRLSCAASKSILSFAYMRWYRQAPGKQREFVASIAIGGATSYTDSVKGRFTISRDNAKNTVYLQMNSLKPEDTAVYYCSAPAGQYRGQGTLVTVSSAAADYKDHDGDYKDHDIDYKDDDDKGAAHHHHHHKAAGGGGG
MFI [30]: 1860 MFI
MFI [31]: 559 MFI
MFI [32]: 1660 MFI
MFI [33]: 825 MFI

From US20240002497A1
